According to patent US20210369812A1, “OSTEOINDUCTIVE PEPTIDES, COMPOSITIONS, IMPLANTS, AND METHODS OF USE” (The Board of Regents of the University of Oklahoma, priority 2018, published 2021):
“Also recorded” adds a separate entry of the source.

How the values were obtained:
[1] = molecular target: T1, BMPR1A (Homo sapiens, UniProt P36894); test: Biopanning of Ph.D.-12 phage library on immobilized BMPR1A-Fc; format: binding; conditions: peptide displayed on p3 of M13 phage; 3 rounds of panning
T1 construct: purchased G&P Biosciences
Method: (§1) The Ph.D.™-12 phage library was diluted in tris-buffered saline mixed with Tween-20 (TBS+0.1% v/v Tween-20 and abbreviated TBST) for a final concentration of 2×10^11 phage in 1 mL of TBST. The diluted library was then pipetted onto one of the wells of a 12-well poly-L-lysine plate followed by rocking the plate gently for 60 minutes at room temperature. […] This supernatant served as the starting phage library for subsequent binding selections. The phages which stuck to the plate were discarded.
(§2) This procedure is only applicable if the charge of the desired protein to be immobilized is negative, determined by checking the pI value of the protein. […]. This procedure was written for 12-well plates coated in poly-L-lysine (positively charged). Separate solutions of BMPR1A-Fc and BMPR2-Fc were prepared at 80 μg/ml in Tris-buffered saline (pH 7.5). In separate wells and on separate poly-L-lysine coated 12-well plates, 0.3 ml of each solution of receptor was added. The solutions of BMPR1A-Fc and BMPR2-Fc were swirled around the plate surface until the entire surface was wet. The plates were then incubated overnight at 4° C. with gentle agitation in a humidified container (a sealed plastic box with damp paper towels). Each individual receptor was now immobilized.
(§3) The following selection procedure is based off of the direct coating procedure outlined in the Ph.D.™-12 Phage Display Libraries instructional manual (New England Biolabs) with some alterations. This procedure was carried out after immobilizing the targets BMPR1A-Fc and BMPR2-Fc in a 12-well poly-L-lysine coated plate. A stock solution of tetracycline was prepared (20 mg/ml in 1:1 ethanol:water). The coating solution containing the target receptors was poured off followed by firmly slapping the plates face down on a clean paper towel. Each well was then filled with blocking buffer (0.1 M NaHCO3 (pH 8.6), 5 mg/mL BSA, 0.02% NaN3. Filter sterilize, store at 4° C.) and incubated for 1 hour at 4° C. The blocking solution was then poured off followed by firmly slapping the plates down against a clean paper towel. Each plate was washed rapidly 6 times with Tris-buffered saline mixed with Tween-20 (TBS+0.1% v/v Tween-20). The plate was slapped against a clean paper towel each time. 1 ml of the phage library created from the negative selection process was then pipetted onto each of the target coated wells. The plates were then rocked gently at room temperature for 60 min. The non-binding phages were then discarded by pouring off the supernatant and slapping the plate face-down on a clean paper towel. The plate was then washed 10 times with TBST followed by slapping the plate face-down on a clean paper towel each time (a clean section of paper towel was used each time to prevent cross-contamination). The bound phages were then eluted by incubating with a nonspecific disruption buffer (0.2 M Glycine-HCl (pH 2.2), 1 mg/ml bovine serum albumin (BSA) for 15 minutes. The eluate (immersed in the disruption buffer) was then pipetted into a microcentrifuge tube followed by neutralization with 150 μl of 1 M Tris-HCl (pH 9.1). A small portion (˜1 μl) of this eluate could be titered and sequenced if desired. The rest of the eluate was amplified (see amplification of phage library section). Once amplified, the eluate was also titered. Determine the concentration of amplified phages by counting the blue plaques in titering as described. Dilute the amplified library to contain 2×10^11 phages in 1 mL of TBS (as little as 10^9 plaque forming units per ml can be used if there is not enough). A second poly-L-lysine 12-well plate was then coated with the target receptors to allow for a second round of biopanning carried out using the same steps except that the Tween-20 concentration in the wash steps was raised to 0.5% (v/v). The eluate from the second round was then amplified, titered and used in an additional 3rd round of panning on newly receptor coated plates. […]

[2] = molecular target: T2, BMPR2 (Homo sapiens, UniProt Q13873); test: Biopanning of Ph.D.-12 phage library on immobilized BMPR2-Fc; format: binding; conditions: peptide displayed on p3 of M13 phage; 3 rounds of panning
T2 construct: purchased G&P Biosciences
T2 sequence (Q13873 27-150 limits assumed): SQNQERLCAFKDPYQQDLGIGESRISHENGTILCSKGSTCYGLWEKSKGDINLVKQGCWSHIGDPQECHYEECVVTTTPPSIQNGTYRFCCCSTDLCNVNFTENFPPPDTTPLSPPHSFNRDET
Method: as §1, §2, §3

[3] = molecular target: T1, BMPR1A; test: Enzyme-linked immune sorbent assay for receptor binding (BMPR1A); conditions: peptide on p3 of M13 phage; absorbance 450 nm; n=4; vs wild type phage
Source text: (§4) Groups having the same lowercase letter assigned (above the bar) were not statistically different from each other. Groups having different letters assigned (above the bar) were statistically different from each other. […] The primary antibody was mouse anti-g3p (p8) IgG. The secondary antibody was anti-mouse IgG conjugated with horseradish peroxidase. The substrate, 3,3′,5,5′-Tetramethylbenzidine was detected at 450 nm after stopping the reaction with 1 M HCl.
Blocking buffer (0.1 M NaHCO3 (pH 8.6), 5 mg/ml BSA. Filter sterilized, stored at 4° C.) was prepared. TBS (50 mM Tris-HCl (pH 7.5), 150 mM NaCl, autoclaved, stored at room temperature) was prepared. Separate solutions of the target receptors were then made. For BMPR1A, a 10 μg/ml stock solution was made. For BMPR2, a 10 μg/ml solution was also made. Separate wells with n=4 for each different peptide bearing phage group were then coated with one of the receptors. The coating was done by adding 100 μl of the target solution to wells of a 96-well plate followed by swirling until the surface was completely wet. The plates were then allowed to incubate overnight at 4° C. with gentle agitation in a humidified container (a plastic box lined with damp paper towels). Any excess target solution was then removed, and the plate was slapped face-down on a clean paper towel. The wells of the plate were then blocked with 200 μl of blocking buffer for 1 hour at room temperature. […] The blocking buffer was then removed from each plate followed by 5 washes with 200 μl of TBST. Each time the plate was slapped against a clean section of paper towel face-down. […] After a brief pilot test, it should be noted that using 10^10 phage/ml was determined to work best, but other concentrations of virus also worked consistently. […] Then, […] of freshly prepared 3,3′,5,5′-Tetramethylbenzidine (TMB) was added to each well and the absorbance at 370 nm and 652 nm was monitored for 1 hour using an ELISA plate reader. […] The absorbance at 450 nm for each well was then measured.

[4] = molecular target: T2, BMPR2; test: Enzyme-linked immune sorbent assay for receptor binding (BMPR2); conditions: peptide on p3 of M13 phage; absorbance 450 nm; n=4; vs wild type phage
Source text: as §4
Blocking buffer (0.1 M NaHCO3 (pH 8.6), 5 mg/ml BSA. Filter sterilized, stored at 4° C.) was prepared. TBS (50 mM Tris-HCl (pH 7.5), 150 mM NaCl, autoclaved, stored at room temperature) was prepared. Separate solutions of the target receptors were then made. For BMPR1A, a 10 μg/ml stock solution was made. For BMPR2, a 10 μg/ml solution was also made. Separate wells with n=4 for each different peptide bearing phage group were then coated with one of the receptors. […] After a brief pilot test, it should be noted that using 10^10 phage/ml was determined to work best, but other concentrations of virus also worked consistently. […] Then, […] of freshly prepared 3,3′,5,5′-Tetramethylbenzidine (TMB) was added to each well and the absorbance at 370 nm and 652 nm was monitored for 1 hour using an ELISA plate reader. […] The absorbance at 450 nm for each well was then measured.

[5] = tested on: human mesenchymal stem cells (hMSCs); test: Live cell binding through immunofluorescence; format: cell-based; conditions: 10^12 phages/ml
Method: Human mesenchymal stem cells (hMSCs) were grown to roughly 60% plate coverage in a 48-well tissue culture plate according to the company Lonza's culturing protocols. […] The hMSCs were then blocked with 0.5% BSA (dissolved in cell media) for 1 hour. The cell media for the hMSCs was then replaced with 1 ml of new cell media having of concentration of 10^12 phages/ml. Next, the plates were washed once with 400 μl of phosphate buffered saline (PBS) at a pH of 7.4. The hMSCs were then incubated with Anti-M13 Bacteriophage Coat Protein g8p antibody [RL-ph2] (ab9225) at a 1:1000 dilution in cell media (200 μl per well). The wells were then washed again with PBS (400 μl per wash). Next, the hMSCs were incubated with the secondary antibody, Goat-anti mouse AF-488 (Abcam) for 1 hour (1 ug/ml final concentration of antibody in media). The wells were then washed again with PBS (400 μl per wash). A Hoechst nuclear stain was used to stain the nuclei (PureBlu™ Hoechst 33342 Nuclear Staining Dye #1351304 from BioRad) according to the company's protocol. Cell Mask™ Orange Plasma Membrane Stain was used to stain membranes (CellMask™ Orange Plasma Membrane Stain Catalog number: C10045 from Thermo Fisher Scientific) according to the company's protocol. The phages binding to the cells were then imaged on a Nikon Eclipse Ti fluorescent microscope.

T1 sequence (P36894 24-152 limits assumed): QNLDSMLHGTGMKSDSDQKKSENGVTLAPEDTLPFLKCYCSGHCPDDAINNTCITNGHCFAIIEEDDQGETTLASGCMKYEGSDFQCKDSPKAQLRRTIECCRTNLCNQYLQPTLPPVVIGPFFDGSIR

Sequence	Binding to BMPR1A found by biopanning (frequency among sequenced plaques) [1]	Binding to BMPR2 found by biopanning (frequency among sequenced plaques) [2]	Relative binding strength in ELISA to BMPR1A [3]	Relative binding strength in ELISA to BMPR2 [4]	Binding of peptide-bearing phages to live hMSCs [5]
NAKYPTMRPGPK (Completely synthesized in the lab - Ph.D.-12 Phage Display Peptide Library Kit (New England Biolabs))	discovered to bind	discovered to bind			
TSKYLTMRPGPK (Completely synthesized in the lab - Ph.D.-12 Phage Display Peptide Library Kit (New England Biolabs))	discovered to bind	discovered to bind			
TAKYLPMRPGPL (Completely synthesized in the lab - Ph.D.-12 Phage Display Peptide Library Kit (New England Biolabs))	most frequently obtained peptide; also recorded: discovered to bind	discovered to bind	best binders		
RDYHPRDHTATW (Completely synthesized in the lab - Ph.D.-12 Phage Display Peptide Library Kit (New England Biolabs))	discovered to bind	most frequent peptide; also recorded: discovered to bind		statistically significant binders	bound to what appeared to be the same location as the outer membrane; also recorded: demonstrated an ability to bind to the outer membrane
GNNPLHVHHDKR (Completely synthesized in the lab - Ph.D.-12 Phage Display Peptide Library Kit (New England Biolabs))	discovered to bind	discovered to bind			
TAKSLPMRPGPL (Completely synthesized in the lab - Ph.D.-12 Phage Display Peptide Library Kit (New England Biolabs))	discovered to bind	discovered to bind			
DYHDPSLPTLRK (Completely synthesized in the lab - Ph.D.-12 Phage Display Peptide Library Kit (New England Biolabs))	discovered to bind	discovered to bind			
NAKYPTMRPGPL (Completely synthesized in the lab - Ph.D.-12 Phage Display Peptide Library Kit (New England Biolabs))	discovered to bind	discovered to bind			
